Molecular target: the molecule itself
Test: cryo-EM structure; CLC-ec1 in Salipro (Saposin-A, POPE/POPG) nanoparticles, 10 mM Hepes, 150 mM NaCl, pH 7.5; C2 symmetry imposed

B1: CLC-ec1 (wild type) (natural protein, E. coli)
chain: MKTDTPSLETPQAARLRRRQLIRQLLERDKTPLAILFMAAVVGTLVGLAAVAFDKGVAWLQNQRMGALVHTADNYPLLLTVAFLCSAVLAMFGYFLVRKYAPEAGGSGIPEIEGALEDQRPVRWWRVLPVKFFGGLGTLGGGMVLGREGPTVQIGGNIGRMVLDIFRLKGDEARHTLLATGAAAGLAAAFNAPLAGILFIIEEMRPQFRYTLISIKAVFIGVIMSTIMYRIFNHEVALIDVGKLSDAPLNTLWLYLILGIIFGIFGPIFNKWVLGMQDLLHRVHGGNITKWVLMGGAIGGLCGLLGFVAPATSGGGFNLIPIATAGNFSMGMLVFIFVARVITTLLCFSSGAPGGIFAPMLALGTVLGTAFGMVAVELFPQYHLEAGTFAIAGMGALLAASIRAPLTGIILVLEMTDNYQLILPMIITGLGATLLAQFTGGKPLYSAILARTLAKQEAEQLARSK
notes: CLC-ec1, the E. coli CLC Cl-/H+ exchange transporter homolog; The eluate of the cobalt column was incubated with Endoproteinase Lys-C; Homodimer in the cryo-EM maps (C2 symmetry imposed); also called WT CLC-ec1; WT
B1: binds.
